According to the RNAGym collection of RNA variant scans (doi:10.1073/pnas.2313332121):
Variants at the floor of the assay were thinned out.

B1: TPR 5TU (parent)
chain: GGAUCUUCUCGAUCUAACAAAAAAGACAAAUCUGCCACAAAGCUUGAGAGCAUCUUCGGAUGCAGAGGCGGCAGCCUUCGGUGGCGCGAUAGCGCCAACGUUCUCAACUAUGACACGCAAAACGCGUGCUCCGUUGAAUGGAGUUUAUCAUG

Variants of: B1
Assay: polymerase ribozyme fitness, log enrichment relative to wild type (log ratio); higher = more active; in vitro selection for triplet polymerase activity
Outline: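 Genotype fitness is the logarithm of its enrichment divided by wild-type enrichment, using inverse-variance-weighted averages of replicates. That logarithm is base 2. Enrichment was measured by Illumina sequencing of input and output libraries from one triplicate in vitro selection round, with frozen incubation at −7 °C, on PCR-built, transcribed mutant libraries of each subunit of a heterodimeric triplet polymerase ribozyme, retaining genotypes with ≥10 input reads and ≥1 read per output.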

Variant	polymerase ribozyme fitness (log ratio)
G11C C57U C95U U127A C149A	≤ -4.2
A12G A29U U31A G67U C72A G92U A137G	≤ -4.2
G11A U31A	-0.715
A12C C93G A98U	-3.05
A12G A91G A106G	-2.04
G11U G34A G88A G124A	≤ -4.2
A12C G133C U145A	-1.11
G11A G34C A47G C103G A121U	≤ -4.2
A12G C14G A22C A37C G88C G143C	≤ -4.2
G11U A91G	-3.82
A12G A24U C87U	0.648
A12C A19U U31G A41C C93A G141A	-3.98
A12G C14U G92U U111C A138U	≤ -4.2
G11U C93U A115G	-2.88
G11U G25C G71C C95G C103A C116G	≤ -4.2
G11U C14U C72U G143A	≤ -4.2
G11C A12U C14A A28G A52C G62C U78A G112C	≤ -4.2
G11A U104A A119U G136A U144A	-2.19
G11C A66U C96A C108G	≤ -4.2
G11C U148G	≤ -4.2
A12G A20U A23C G141U	≤ -4.2

Variant	polymerase ribozyme fitness (log ratio)
G11U A17G C57U C63U G81A U82G	-1.64
G11U C32U C93G A107G	≤ -4.2
G11C G46A G58A G83A	-3.26
G11C A47U C85U	-2.5
G11C G62A C87G	≤ -4.2
A12C A23G U31C U55A	≤ -4.2
A12C C27A C36U C72G C118A	≤ -4.2
G11C G42A G88C U102C G126U	≤ -4.2
G11C A40C G84A A97U	-3.7
G11C C14U A37C C93U	≤ -4.2
A12G C57G G83U A115G	-2.09
A12C C14U U55A A98G C103G G133A	≤ -4.2
A12C G50C G65A C76G G83U	≤ -4.2
G11A A39U A97C	-3.26
A12G C54U U61A C72A C96U A98U C99A A142C	≤ -4.2
G11C A40C G83U A119G	-2.65
G11U C38A G83U U135C C149G	≤ -4.2
G11A U15G A107G G141C U144C U145A G152A	≤ -4.2
A12C C38U C54U C76U U77G G84A U127A A138U	≤ -4.2
A12C C35A C85G C103G C118G G141C	≤ -4.2
A12C A20C U53A C76A U151G	≤ -4.2

Variant	polymerase ribozyme fitness (log ratio)
G11C C75U	-1.85
G11A C54U U55A G74A A89G G92C C105G G112A U144G	≤ -4.2
A12C G50C A66C C79G C93U C95U U139C A147U	≤ -4.2
G11U U33G A66C G84A G128U A137C U145A	≤ -4.2
G11C A29G A40U C76U C87U	≤ -4.2
G11U A47G U53A	-2.54
G11C A40G G84A A97C G126A	≤ -4.2
A12G A37G C87U U109G U144C U145C C149G	≤ -4.2
A12C A21U U53A G59C A60G G84A	-0.862
G11A A29U U82G C87A G94C C96U A98G A122C G141A	≤ -4.2
A12C C129G	-3.9
A12G C57G G59A C96U U127G	-3.86
A12C A19C A122G U146C	-1.62
G11A C93G	≤ -4.2
G11C U56A G86A	≤ -4.2
A12G C38A C96G	-0.0836
G11A C35U C51U U61G C63U A64C C85G U90G G140A	≤ -4.2
G11U A17C A37U A121U A122U	-3.25
A12C U53A G58U C99G U151C	≤ -4.2
G11A A64G G88U U101G C103G U146G	≤ -4.2
A12G A52U C76U C93U A120U	-2.12

Variant	polymerase ribozyme fitness (log ratio)
G11A C38A A40G	-4.14
G11C A52G G84A G133C G141A	≤ -4.2
G11U U53G C57G G59U G94A	-3.74
A12G A41C A47C C72A C85U G133A A150U	≤ -4.2
G11U C14G G34U G84U G141U	≤ -4.2
A12C A41C C54U G94U A121G G140C	≤ -4.2
G11A C54U U61A C95A C149G	≤ -4.2
G11U C14G G34U G84U C125G C149G	≤ -4.2
G11A A113U	-2.69
G11C C14G A26U C105G U134G	≤ -4.2
G11A G141U	0.246
A12G A23U C85G A150G	≤ -4.2
A12C C14U A22C U61G G65A G86A C93U U134G	≤ -4.2
G11U A22C C87U	-2.61
A12G A52C C93U A98U G124A	-2
G11U U56A C79G C87G C96U A142G	≤ -4.2
G11C C14G C87A A121C U144A	≤ -4.2
G11C C35U A52C A60G	≤ -4.2
G11U G94A A98C	-1.81
A12G A22G A39U A47U G92U A97G U101G	≤ -4.2
G11U G48C C79A C93G A119G G141U	≤ -4.2
